B1: RTN2 (parent)
chain: SERPLEDLRLRLDHLGWVARGTGS

Variants of: B1
Test: protein stability index of a GFP-peptide fusion (GPS, HEK-293T) (PSI 1-6); higher = more stable
Conditions: c terminus: a fixed tail appended
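Note: lentivirally expressed fusions sorted by FACS into six bins by GFP to DsRed ratio, PSI derived from sequencing read proportions per bin multiplied by bin number.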

Point of comparison: SERPLEDLRLRLDHLGWVCRGTGS, protein stability index 2.58. Against it:
- SEFPLEDLRLRLDHLGWVARGTGS — lower, 2.18
- SECPLEDLRLRLDHLGWVARGTGS — lower, 2.4
- SEHPLEDLRLRLDHLGWVARGTGS — higher, 2.76
- SEPPLEDLRLRLDHLGWVARGTGS — higher, 3.56
- SEKPLEDLRLRLDHLGWVARGTGS — lower, 1.63
- SEAPLEDLRLRLDHLGWVARGTGS — higher, 3.86
- SEDPLEDLRLRLDHLGWVARGTGS — higher, 2.82
- SEWPLEDLRLRLDHLGWVARGTGS — lower, 1.62
- SEYPLEDLRLRLDHLGWVARGTGS — lower, 1.86
- SEMPLEDLRLRLDHLGWVARGTGS — higher, 2.99
- SEQPLEDLRLRLDHLGWVARGTGS — lower, 2
- SENPLEDLRLRLDHLGWVARGTGS — lower, 2.48
- SEGPLEDLRLRLDHLGWVARGTGS — lower, 2.19
- SESPLEDLRLRLDHLGWVARGTGS — lower, 2.07
- SELPLEDLRLRLDHLGWVARGTGS — lower, 2.49
- SERPLEDLRLRLDHWGWVARGTGS — higher, 3.5
- SERPLEDLRLRLDHGGWVARGTGS — higher, 2.97
- SERPLEDLRLRLDHTGWVARGTGS — lower, 2.26
- SERPLEDLRLRLDHMGWVARGTGS — lower, 1.89
- SERPLEDLRLRLDHQGWVARGTGS — lower, 2.1
- SERPLEDLRLRLDHAGWVARGTGS — higher, 2.88
- SERPLEDLRLRLDHYGWVARGTGS — higher, 2.59
- SERPLEDLRLRLDHEGWVARGTGS — lower, 2.25
- SERPLEDLRLRLDHIGWVARGTGS — lower, 2.28
- SERPLEDLRLRLDHCGWVARGTGS — lower, 2.15
- SERPLEDLRLRLDHFGWVARGTGS — higher, 2.8
- SERPLEDERLRLDHLGWVARGTGS — higher, 3.52
- SERPLEDQRLRLDHLGWVARGTGS — lower, 1.47
- SERPLEDWRLRLDHLGWVARGTGS — lower, 1.87
- SERPLEDKRLRLDHLGWVARGTGS — higher, 2.83
- SERPLEDFRLRLDHLGWVARGTGS — lower, 1.96
- SERPLEDVRLRLDHLGWVARGTGS — lower, 1.64
- SERPLEDIRLRLDHLGWVARGTGS — lower, 2.44
- SERPLEDARLRLDHLGWVARGTGS — higher, 2.73
- SERPLEDYRLRLDHLGWVARGTGS — lower, 2.35
- SERPLEDDRLRLDHLGWVARGTGS — lower, 2.32
- SERPLEDNRLRLDHLGWVARGTGS — lower, 2.13
- SERPLEDHRLRLDHLGWVARGTGS — lower, 2.16
- SERPLEDLRLRLDHLGWVDRGTGS — higher, 3.31
- SERPLIDLRLRLDHLGWVARGTGS — lower, 1.71
- SERPLVDLRLRLDHLGWVARGTGS — higher, 2.63
- SERPLNDLRLRLDHLGWVARGTGS — lower, 2.24
- SERPLHDLRLRLDHLGWVARGTGS — lower, 2.34
- SERPLTDLRLRLDHLGWVARGTGS — lower, 1.29
- SERPLKDLRLRLDHLGWVARGTGS — lower, 1.53
- SERPLDDLRLRLDHLGWVARGTGS — lower, 1.68
- SERPLFDLRLRLDHLGWVARGTGS — higher, 2.78
- SERPLADLRLRLDHLGWVARGTGS — lower, 2.27
- SERPLMDLRLRLDHLGWVARGTGS — lower, 2.29
- SERPLWDLRLRLDHLGWVARGTGS — lower, 1.62
- SERPLCDLRLRLDHLGWVARGTGS — higher, 2.72
- SERPLQDLRLRLDHLGWVARGTGS — lower, 2.49
- SERPLPDLRLRLDHLGWVARGTGS — lower, 2.15
- SERPLGDLRLRLDHLGWVARGTGS — lower, 2.35
- SERPLSDLRLRLDHLGWVARGTGS — lower, 1.93
- SERPLEMLRLRLDHLGWVARGTGS — lower, 1.02
- SERPLENLRLRLDHLGWVARGTGS — lower, 1.99
- SERPLETLRLRLDHLGWVARGTGS — lower, 1.88
- SERPLEGLRLRLDHLGWVARGTGS — lower, 1.96
- SERPLEWLRLRLDHLGWVARGTGS — lower, 1.29
- SERPLEHLRLRLDHLGWVARGTGS — lower, 1.87
- SERPLEQLRLRLDHLGWVARGTGS — lower, 1.43
- SERPLERLRLRLDHLGWVARGTGS — lower, 1.79
- SERPLEALRLRLDHLGWVARGTGS — lower, 1.94
- SERPLEVLRLRLDHLGWVARGTGS — lower, 1.9
- SERPLEDLVLRLDHLGWVARGTGS — higher, 3.31
- SERPLEDLTLRLDHLGWVARGTGS — lower, 2.27
- SERPLEDLDLRLDHLGWVARGTGS — lower, 2.31
- SERPLEDLFLRLDHLGWVARGTGS — lower, 1.63
- SERPLEDLELRLDHLGWVARGTGS — higher, 2.85
- SERPLEDLMLRLDHLGWVARGTGS — lower, 1.42
- SERPLEDLKLRLDHLGWVARGTGS — lower, 1.92
- SERPLEDLCLRLDHLGWVARGTGS — higher, 3.37
- SERPLEDLALRLDHLGWVARGTGS — lower, 2.34
- SERPLEDLSLRLDHLGWVARGTGS — lower, 1.2
- SERPLEDLILRLDHLGWVARGTGS — lower, 2.17
- SERPLEDLQLRLDHLGWVARGTGS — lower, 2.26
- SERPLEDLHLRLDHLGWVARGTGS — lower, 2.56
- SERPLEDLPLRLDHLGWVARGTGS — lower, 2.1
- SERPLEDLWLRLDHLGWVARGTGS — lower, 1.64
- SERPLEDLYLRLDHLGWVARGTGS — lower, 2.26
- SERPLEDLNLRLDHLGWVARGTGS — higher, 2.84
- SERPLEDLRLCLDHLGWVARGTGS — lower, 1.52
- SERPLEDLRLILDHLGWVARGTGS — lower, 1.41
- SERPLEDLRLWLDHLGWVARGTGS — lower, 1.4
- SERPLEDLRLNLDHLGWVARGTGS — the same, 2.58
- SERPLEDLRLTLDHLGWVARGTGS — lower, 2.28
- SERPLEDLRLFLDHLGWVARGTGS — lower, 1.79
- SERPLEDLRLALDHLGWVARGTGS — lower, 1.92
- SERPLEDLRLQLDHLGWVARGTGS — higher, 2.9
- SERPLEDLRLYLDHLGWVARGTGS — higher, 2.7
- SERPLEDLRLRLDHLGWNARGTGS — higher, 3.81
- SERPLEDLRLRLDHLGWQARGTGS — higher, 3.02
